Measurements: publication doi:10.1101/2024.11.26.625568, “Structural and functional insights into activation and regulation of the dynein-dynactin-NuMA complex” (bioRxiv, 2024)

B1: NuMA 1-705 (domain or fragment, human, UniProt Q14980 1-705, looked up)
chain: MTLHATRGAALLSWVNSLHVADPVEAVLQLQDCSIFIKIIDRIHGTEEGQQILKQPVSERLDFVCSFLQKNRKHPSSPECLVSAQKVLEGSELELAKMTMLLLYHSTMSSKSPRDWEQFEYKIQAELAVILKFVLDHEDGLNLNEDLENFLQKAPVPSTCSSTFPEELSPPSHQAKREIRFLELQKVASSSSGNNFLSGSPASPMGDILQTPQFQMRRLKKQLADERSNRDELELELAENRKLLTEKDAQIAMMQQRIDRLALLNEKQAASPLEPKELEELRDKNESLTMRLHETLKQCQDLKTEKSQMDRKINQLSEENGDLSFKLREFASHLQQLQDALNELTEEHSKATQEWLEKQAQLEKELSAALQDKKCLEEKNEILQGKLSQLEEHLSQLQDNPPQEKGEVLGDVLQLETLKQEAATLAANNTQLQARVEMLETERGQQEAKLLAERGHFEEEKQQLSSLITDLQSSISNLSQAKEELEQASQAHGARLTAQVASLTSELTTLNATIQQQDQELAGLKQQAKEKQAQLAQTLQQQEQASQGLRHQVEQLSSSLKQKEQQLKEVAEKQEATRQDHAQQLATAAEEREASLRERDAALKQLEALEKEKAAKLEILQQQLQVANEARDSAQTSVTQAQREKAELSRKVEELQACVETARQEQHEAQAQVAELELQLRSEQQKATEKERVAQEKDQLQEQLQ
modifications: LD555 dye on the SNAP tag
notes: NuMA (nuclear mitotic apparatus protein), human, a.a; Construct used for the cryo-EM structure of the DDN complex; also called NuMA N-terminal construct; source: SF9 insect cells (baculovirus), purified (IgG Sepharose, TEV elution, Superose 6 SEC); not shown: His6, N-terminal, cleaved; ZZ, N-terminal, cleaved; SNAP, C-terminal, kept
B2: NuMA C (domain or fragment, human, UniProt Q14980 1700-2115, looked up)
chain: FQVATDALKSREPQAKPQLDLSIDSLDLSCEEGTPLSITSKLPRTQPDGTSVPGEPASPISQRLPPKVESLESLYFTPIPARSQAPLESSLDSLGDVFLDSGRKTRSARRRTTQIINITMTKKLDVEEPDSANSSFYSTRSAPASQASLRATSSTQSLARLGSPDYGNSALLSLPGYRPTTRSSARRSQAGVSSGAPPGRNSFYMGTCQDEPEQLDDWNRIAELQQRNRVCPPHLKTCYPLESRPSLSLGTITDEEMKTGDPQETLRRASMQPIQIAEGTGITTRQQRKRVSLEPHQGPGTPESKKATSCFPRPMTPRDRHEGRKQSTTEAQKKAAPASTKQADRRQSMAFSILNTPKKLGNSLLRRGASKKALSKASPNTRSGTRRSPRIATTTASAATAAAIGATPRAKGKAKH
notes: NuMA, human, C-terminal region a.a; 1700-2115; also called NuMA C-terminus; NuMA C-mNG; source: SF9 insect cells (baculovirus), purified (IgG Sepharose, TEV elution, Superdex 200 SEC); not shown: His6, N-terminal, cleaved; ZZ, N-terminal, cleaved; MBP, N-terminal, cleaved; mNG, C-terminal, kept
B3: NuMA 1-1699 (domain or fragment, human, UniProt Q14980 1-1699, looked up)
chain: MTLHATRGAALLSWVNSLHVADPVEAVLQLQDCSIFIKIIDRIHGTEEGQQILKQPVSERLDFVCSFLQKNRKHPSSPECLVSAQKVLEGSELELAKMTMLLLYHSTMSSKSPRDWEQFEYKIQAELAVILKFVLDHEDGLNLNEDLENFLQKAPVPSTCSSTFPEELSPPSHQAKREIRFLELQKVASSSSGNNFLSGSPASPMGDILQTPQFQMRRLKKQLADERSNRDELELELAENRKLLTEKDAQIAMMQQRIDRLALLNEKQAASPLEPKELEELRDKNESLTMRLHETLKQCQDLKTEKSQMDRKINQLSEENGDLSFKLREFASHLQQLQDALNELTEEHSKATQEWLEKQAQLEKELSAALQDKKCLEEKNEILQGKLSQLEEHLSQLQDNPPQEKGEVLGDVLQLETLKQEAATLAANNTQLQARVEMLETERGQQEAKLLAERGHFEEEKQQLSSLITDLQSSISNLSQAKEELEQASQAHGARLTAQVASLTSELTTLNATIQQQDQELAGLKQQAKEKQAQLAQTLQQQEQASQGLRHQVEQLSSSLKQKEQQLKEVAEKQEATRQDHAQQLATAAEEREASLRERDAALKQLEALEKEKAAKLEILQQQLQVANEARDSAQTSVTQAQREKAELSRKVEELQACVETARQEQHEAQAQVAELELQLRSEQQKATEKERVAQEKDQLQEQLQALKESLKVTKGSLEEEKRRAADALEEQQRCISELKAETRSLVEQHKRERKELEEERAGRKGLEARLQQLGEAHQAETEVLRRELAEAMAAQHTAESECEQLVKEVAAWRERYEDSQQEEAQYGAMFQEQLMTLKEECEKARQELQEAKEKVAGIESHSELQISRQQNELAELHANLARALQQVQEKEVRAQKLADDLSTLQEKMAATSKEVARLETLVRKAGEQQETASRELVKEPARAGDRQPEWLEEQQGRQFCSTQAALQAMEREAEQMGNELERLRAALMESQGQQQEERGQQEREVARLTQERGRAQADLALEKAARAELEMRLQNALNEQRVEFATLQEALAHALTEKEGKDQELAKLRGLEAAQIKELEELRQTVKQLKEQLAKKEKEHASGSGAQSEAAGRTEPTGPKLEALRAEVSKLEQQCQKQQEQADSLERSLEAERASRAERDSALETLQGQLEEKAQELGHSQSALASAQRELAAFRTKVQDHSKAEDEWKAQVARGRQEAERKNSLISSLEEEVSILNRQVLEKEGESKELKRLVMAESEKSQKLEERLRLLQAETASNSARAAERSSALREEVQSLREEAEKQRVASENLRQELTSQAERAEELGQELKAWQEKFFQKEQALSTLQLEHTSTQALVSELLPAKHLCQQLQAEQAAAEKRHREELEQSKQAAGGLRAELLRAQRELGELIPLRQKVAEQERTAQQLRAEKASYAEQLSMLKKAHGLLAEENRGLGERANLGRQFLEVELDQAREKYVQELAAVRADAETRLAEVQREAQSTARELEVMTAKYEGAKVKVLEERQRFQEERQKLTAQVEQLEVFQREQTKQVEELSKKLADSDQASKVQQQKLKAVQAQGGESQQEAQRLQAQLNELQAQLSQKEQAAEHYKLQMEKAKTHYDAKKQQNQELQEQLRSLEQLQKENKELRAEAERLGHELQQAGLKTKEAEQTCRHLTAQVRSLEAQVAHADQQLRDLGK
modifications: LD555 dye on the SNAP tag
notes: NuMA (nuclear mitotic apparatus protein), human, a.a; 1-1699; also called NuMA N-terminal construct; source: SF9 insect cells (baculovirus), purified (IgG Sepharose, TEV elution, Superose 6 SEC); not shown: His6, N-terminal, cleaved; ZZ, N-terminal, cleaved; SNAP, C-terminal, kept
B4: TPR domain of LGN (a.a. 1-409) (domain or fragment, human, UniProt P81274 1-409, looked up)
chain: MEENLISMREDHSFHVRYRMEASCLELALEGERLCKSGDCRAGVSFFEAAVQVGTEDLKTLSAIYSQLGNAYFYLHDYAKALEYHHHDLTLARTIGDQLGEAKASGNLGNTLKVLGNFDEAIVCCQRHLDISRELNDKVGEARALYNLGNVYHAKGKSFGCPGPQDVGEFPEEVRDALQAAVDFYEENLSLVTALGDRAAQGRAFGNLGNTHYLLGNFRDAVIAHEQRLLIAKEFGDKAAERRAYSNLGNAYIFLGEFETASEYYKKTLLLARQLKDRAVEAQSCYSLGNTYTLLQDYEKAIDYHLKHLAIAQELNDRIGEGRACWSLGNAYTALGNHDQAMHFAEKHLEISREVGDKSGELTARLNLSDLQMVLGLSYSTNNSIMSENTEIDSSLNGVRPKLGRRHSM
modifications: LD655 dye on the SNAP tag (unlabeled LGN in some assays)
notes: LGN, human, N-terminal TPR domain a.a; 1-409; cloned from pTK47_mCherry-LGN-Hardened; The methods say 'C-terminal SNAP or mNG'; the LD655 labelling implies SNAP; also called LGN TPR; source: SF9 insect cells (baculovirus), purified (IgG Sepharose, TEV elution, Resource-Q ion exchange); not shown: His6, N-terminal, cleaved; ZZ, N-terminal, cleaved; SNAP, C-terminal, kept
B5: NuMA MTBD2 (domain or fragment, human, UniProt Q14980 2002-2115, looked up)
chain: ESKKATSCFPRPMTPRDRHEGRKQSTTEAQKKAAPASTKQADRRQSMAFSILNTPKKLGNSLLRRGASKKALSKASPNTRSGTRRSPRIATTTASAATAAAIGATPRAKGKAKH
notes: NuMA, human, a.a; 2002-2115; source: SF9 insect cells (baculovirus), purified (IgG Sepharose, TEV elution, Superdex 200 SEC); not shown: His6, N-terminal, cleaved; ZZ, N-terminal, cleaved; MBP, N-terminal, cleaved; mNG, C-terminal, kept
B6: NuMA 1-505 (domain or fragment, human, UniProt Q14980 1-505, looked up)
chain: MTLHATRGAALLSWVNSLHVADPVEAVLQLQDCSIFIKIIDRIHGTEEGQQILKQPVSERLDFVCSFLQKNRKHPSSPECLVSAQKVLEGSELELAKMTMLLLYHSTMSSKSPRDWEQFEYKIQAELAVILKFVLDHEDGLNLNEDLENFLQKAPVPSTCSSTFPEELSPPSHQAKREIRFLELQKVASSSSGNNFLSGSPASPMGDILQTPQFQMRRLKKQLADERSNRDELELELAENRKLLTEKDAQIAMMQQRIDRLALLNEKQAASPLEPKELEELRDKNESLTMRLHETLKQCQDLKTEKSQMDRKINQLSEENGDLSFKLREFASHLQQLQDALNELTEEHSKATQEWLEKQAQLEKELSAALQDKKCLEEKNEILQGKLSQLEEHLSQLQDNPPQEKGEVLGDVLQLETLKQEAATLAANNTQLQARVEMLETERGQQEAKLLAERGHFEEEKQQLSSLITDLQSSISNLSQAKEELEQASQAHGARLTAQVASLTS
modifications: LD555 dye on the SNAP tag
notes: NuMA (nuclear mitotic apparatus protein), human, a.a; The methods say 'C-terminal SNAP or mNG'; also called NuMA N-terminal construct; source: SF9 insect cells (baculovirus), purified (IgG Sepharose, TEV elution, Superose 6 SEC); not shown: His6, N-terminal, cleaved; ZZ, N-terminal, cleaved; SNAP, C-terminal, kept

What was measured:
[1] = biological target: the molecule itself; test: mass photometry; single protein diluted to 5-20 nM in 50 mM HEPES pH 7.4, 150 mM NaCl, 1 mM EGTA, 10% glycerol; TwoMP mass photometer
[2] = biological target: microtubules (pig brain tubulin) (pig, UniProt P02550 1-451; Q767L7 1-444, Cy3 or Cy5 and biotin labels on a fraction of the tubulin | Cy3 or Cy5 and biotin labels on a fraction of the tubulin); test: TIRF imaging of fluorescent protein on surface-immobilised microtubules; Cy3/biotin taxol-stabilised MTs immobilised by streptavidin; serial dilutions of mNG-fused NuMA constructs in MBC buffer (30 mM HEPES pH 7.4, 5 mM MgSO4, 1 mM EGTA, 100 mM KAc, casein, pluronic, methylcellulose); apparent Kd from a fit to a binding isotherm; settings: both partners purified
[3] = biological target: B2; test: mass photometry; NuMA C and LGN mixed in equimolar (20 nM) concentrations; mass photometry buffer; settings: both partners purified

Row | Binder | stoichiometry N [1] | Kd [2] [nM] | other results
1 | B1 | 2 | – | –
2 | B2 | – | 390 | –
3 | B3 | 2 | – | –
4 | B4 | – | – | stoichiometry N [3]: 3 LGN per 3 NuMA C
5 | B5 | – | 28 | –
6 | B6 | 2 | – | –
